The text below walks through data of patent US20210087258A1 (UNIVERSITY OF TOKYO, published 2021).

This experiment has as its target T1, P1-2 domain of VP1 of human norovirus (GII.4 strain) (human norovirus (GII.4 strain)).
T1 construct: also called VP1 P1-2 domain
T1 chain: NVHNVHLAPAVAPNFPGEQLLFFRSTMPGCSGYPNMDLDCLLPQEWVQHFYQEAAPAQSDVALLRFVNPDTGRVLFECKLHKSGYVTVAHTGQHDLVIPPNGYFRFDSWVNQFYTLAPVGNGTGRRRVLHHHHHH
Briefly: Western blot of denatured VP1 domains.

B1: KVP-12B8 (VHH)
VHH: EVQLVESGGGSVQSGGSLRLSCAASGYPFSDNAMGWYRQAPGNQRELVATITNSNSTKYADSVKGRFTISRDSAKNTIYLEMNSLKPEDTAIYYCRIERTGRTSIKWTYWGQGTQVTVSS
notes: Llama VHH (nanoantibody) expressed in E. coli from pMEK222 (FLAG tag and His tag); also called IC VP-12B8; not shown: FLAG tag and His tag from vector pMEK222
With B1, the binding result is given as “no binding (tested: 10 µg/ml)”.

B2: KVP-7C6 (VHH)
VHH: EVQLVESGGGLVQAGGSLRLSCAASGRTFGPNVMGWYRQAPGKQRELVASKTSGRLSNYADSVKGRFAISRDFAKNTLYLQMNNLRPDDTAVYYCRLWDSARSTEYWGQGTQVTVSS
notes: Llama VHH (nanoantibody) expressed in E. coli from pMEK222 (FLAG tag and His tag); not shown: FLAG tag and His tag from vector pMEK222
As to B2, the binding result is “no binding (tested: 10 µg/ml)”.
